B1: Gonadotropin Regulated Testicular Helicase (GRTH/DDX25), wild type, V5-His tagged [human] / Protein Kinase A catalytic subunit alpha (PKA-Cα), overexpressed [not stated] (parent complex)
chain 1: MASLLWGGDAGAAESERLNSHFSNLSQPRKNLWGIKSTAVRNIDGSINNINEDDEEDVVDLAANSLLNKLIHQSLVESSHRVEVLQKDPSSPLYSVKTFEELRLKEELLKGIYAMGFNRPSKIQEMALPMMLAHPPQNLIAQSQSGTGKTAAFVLAMLSRVNALELFPQCLCLAPTYELALQTGRVVEQMGKFCVDVQVMYAIRGNRIPRGTDITKQIIIGTPGTVLDWCFKLKLIDLTKIRVFVLDEADVMIDTQGFSDHSIRIQRALPSECQMLLFSATFEDSVWHFAERIIPDPNVIKLRKEELTLNNIRQYYVLCEHRKDKYQALCNIYGSITIGQAIIFCQTRRNAKWLTVEMIQDGHQVSLLSGELTVEQRASIIQRFRDGKEKVLITTNVCARGIDVKQVTIVVNFDLPVKQGEEPDYETYLHRIGRTGRFGKKGLAFNMIEVDELPSLMKIQDHFNSSIKQLNAEDMDEIEKIDY
chain 2: not shown

Variants of B1 are the subject of the first assay. The assay can be described thus: co-immunoprecipitation (IP: V5 antibody), western blot band intensity quantified with ImageJ; COS-1 cells co-transfected with GRTH-V5 and PKA-Cα; read off a plot.
With chain 1 E165A, the response is approximately 1.2 Arbitrary units.

With chain 1 E165A, chain 1 K240A, the response was approximately 1 Arbitrary units.

On to chain 1 T239A, for which the response is approximately 1.3 Arbitrary units.

A further assay covers variants of B1. The assay is described as follows: co-immunoprecipitation (IP: PKA-Cα antibody), western blot band intensity quantified with ImageJ; COS-1 cells co-transfected with GRTH-V5 and PKA-Cα; read off a plot. (A western blot detects proteins with antibodies after separation by electrophoresis.)
Regarding chain 1 E165A, the response was approximately 1.2 Arbitrary units.

Regarding chain 1 E165A, chain 1 K240A, the response was approximately 1.2 Arbitrary units.

With chain 1 T239A, the response was approximately 1.2 Arbitrary units.

For the origin of these results see publication PMC6491591 (2019).
